Test results published in the supplement of paper PMC12455559.

test: purified protein yield per well (BCA); higher = higher soluble expression
How it was run: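 Purified protein yield per well is reported, as measured by the Pierce Rapid Gold BCA kit. The enzymes came from E. coli C41(DE3) autoinduction cultures of 2 mL with 100 µg/mL kanamycin, held at 37 °C for 2 h and 18 °C for 40 h, then lysed and purified on Ni-charged magnetic beads with SUMO protease release. The detection threshold is 25 ug (0.1 mg/mL), and lower values are under it.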

Question: With “QTSDPTSASLNASAGPLSVSTASVTAPRGFGGGTIYYPTTQARYGVIAISPGFTATETSIAWLGRRIATHGFVVITLNTLTTLDQPASRANQLMAALTYVVNSSSSAVKARIDTARLAVAGHSMGGGGALIAARDNPTLKASYPLTPWNSSTSFSTVRVPTMIVGADGDTIAPVATHARPFYASLPSATSKAYGELNNGTHFSPNSTNTPIGRYGVAWMKRFVDGDTRYSTFLCGTEHTRYATALVFDRFNQNCPY [ESM191]” as the sequence, how does the “purified protein yield per well” value read?
Answer: The value was less than 25 µg.

Question: Which “purified protein yield per well” value does the source give for “MHPSFPESEDPAPAARHSAAPLSRDCAHPPARRSTHRTAHRIAHRTARPDRSRRRIRGVLAAATAALLAVAGLTLIPNASAAENPFERGPAPSASSLAAARGPFATSQVTVSSRDASGFGGGTIYFPTSGDEGTFGAVAVAPGFTASRSSMAWLGPRLASQGFIVFNIDTITRSDQPASRGRQLLAALDFLVERSPIRDRVDPDRLAVMGHSMGGGGALEAAESRPTLRAAIPLTPWNLNKNWSRVQVPTMVIGAERDTIASVRFHSEPFFDSLPSDLDKAYLELNNASHFAPNIPNATISSFSVAWLKRFVDDDTRYEQFLCPPPRPAGEISEYQDTCARAS [TEP191]” here?
Answer: Its value is less than 25 µg.

Question: Which “purified protein yield per well” value does the source give for “APVAVAPAAVPVHGVDPTDANLRQPVGDLAFSQVTIADSQTPGFGAATIYYPDDTTHGTYGGVAVVPGYTSPQSAVAWLGPRLASRGFVVITIATNSIYDQPTTRGRELLSALDYLTTSSPAAVRQRLDPQRLAVMGHSMGGGGALYAVSQRTTIKAAVPLAPYNQDKTWQTVKTPTMLMAGSADNVAGIGTFSRPFYRSMTGARERALVNVQGADHGTFVRENATIGKYATAWLKRFVDEDTRYDQFLCPAPTGDGLTEYTASCPNA [DP012]” here?
Answer: Its value is less than 25 µg.

Question: Which “purified protein yield per well” value does the source give for “GGGGGGGGGGNSGDLPAPNPCTANCGFEIGPNPSLSFLRNGPGPLPVSTTTVPRSVDGFGGGTIYYPSNVSREMAAITISPGFTARQGGVAWWGSALASHGFVVMTIDTNSRFDQPASRGRQLDSALSYLISESDRRNSPISGLVDESRLATMGHSMGGGGSLHSASRNRISAAMPLAPWNQSGSGAFNNINVPTMILACESDTTARVGTHAIPFYNRIPNSTDKVYLEINNGNHSCSTGRSGNDRALLRTYGVSWMKRFLDKDGRYNQFLCGPNHTANSSISDFRDTCVF [DP063]” here?
Answer: Its value is less than 25 µg.

Question: For “QNPYERGPAPTTSSLEASRGPFSTSSFTVSRPSGYGAGTVYYPTNAGGTVGAIAIVPGFTARQSSINWWGPRLASHGFVVITIDTNSTLDQPASRSRQQLAALDQVATLARTSSSPIYNKVDTTRMGVMGWSMGGGGSLISAQNRPSLKAAAPQAPWNGSTSFGSVTVPTLIFACENDSIAPVGSHASPMYNSMTRNPKEFIEIDGGSHSCANSGNSNQALIGKKGVAWMKRFMDNDTRYTSFACANPNSTRVSDFRVARCS [ESM066]”, which “purified protein yield per well” value is on record?
Answer: Its value is less than 25 µg.

Question: For “CGTTTSTLTTPAVTPQTLSGAATNPYERGPAPTTALLEAARGPYATASTTVPRSSVSDFGGATIYYPTSTADGTFGGVAISPGYTGTQASVAWLGPRLASHGFVVIVIDTLSRYDYPSSRGDQLRAALRYLTTSSAVRTRVDATRLAVMGHSMGGGGALEAAKDNPALKAAIPLTPWNTDKSWPELTTPTLIFGAQNDSVAPVSSHAIPFYTSLASTLPKAYLELRGASHGAPTSTNTTIAKYAVAWLKRFEDADRRYDPFLCPTPAVSTLLSDARSTCPFN [DP069]”, which “purified protein yield per well” value is on record?
Answer: Its value is less than 25 µg.

Question: For “AQPQKGPDPTEQLVKSQTGPFDIARTSVPAGSGRGFNKGTLYYPTDTSQGAYAAVAVIPGFFEGEYTQSWFGPALASHGFVVFTLETHGLFDFPDQRGDQLIAALDWLVASSPVKDRVDPARLAVMGHSMGGGGTLAAANKRPSIKAAVALTPWHMTKRFPGIEAATMIIGAQSDSIASVSGHAEPMYAALTSPDEHAYVELTGGHFVTNSYTATNMRFILPWLKRFLDSDTRYSPFVCPGPAQDSTFVEYRNTCPV [TEP047]”, which “purified protein yield per well” value is on record?
Answer: The value was less than 25 µg.

Question: For “QTNPYERGPAPTTASLEASRGPFSISSFTVSRPSGYGAGTVYYPTNAGGTVGAIAIVPGFLARQSSINWWGPRLASHGFVVITIDTNSTLDQPASRSRQQLAALDQVAALARTSSSPIYNRVDTTRMGVMGWSMGGGGTLISAQNRPSIKAAAPQAPYNSSTNFSSVTVPTLIFACENDTVAPVNRHASPFYSSMSRNSKQYLEINGGSHSCANSGNSNQPLIGKKGVAWMKRFMDNDTRYTPFACANPNSTRVSEFRTANCS [ESM073]”, which “purified protein yield per well” value is on record?
Answer: Its value is less than 25 µg.

Question: With “QAIGPDPTAASLAADGPFAVSTQTASRATGFAGGTIYVPNTAGRYALVAFCPGFTNSQSAVAALGRRLATHGFVVVTMNTNSIFDFPASRATQLIAALNTVAAISTGPVVGKVDSARRMVAGYSMGGGGALIAARGNPSLRGAVALAPWSDSDKNFSTTTVPTAIVAGSADTTASPTDHATVFYNSMPTTTKKLLAIISGATHSFPTTSTPNQPASGYQIAWSKRFADQDVRYGPFLVTDSRLSSFASTGPF [ESM142]” as the sequence, how does the “purified protein yield per well” value read?
Answer: Its value is less than 25 µg.

Question: For “QTNPYERGPAPTTSSLEASRGPFSYQSFTVSRPSGYRAGTVYYPTNAGGPVGAIAIVPGFTARQSSINWWGPRLASHGFVVITIDTNSTLDQPDSRSRQQMAALSQVATLSRTSSSPIYNKVDTSRLGVMGWSMGGGGSLISARNNPSIKAAAPQAPWSASKNFSSLTVPTLIIACENDTIAPVNQHADTFYDSMSRNPREFLEINNGSHSCANSGNSNQALLGKKGVAWMKRFMDNDRRYTSFACSNPNSYNVSDFRVAACN [ESM158]”, which “purified protein yield per well” value is on record?
Answer: Its value is less than 25 µg.

Question: For “QTPTRESLSRQGPYQVAYYSSLPDVPEYAGATLYFPANKGDSFGGVAIAPGFIETQENIAWWGEYLASYGFAVLTLDTNSPRDIPALRADALMAAVEIIRGENTRMGSPLRGKIDVTRMAIMGHSMGGGGTLLAANAHSDQLKAAIPFTPWLPDADFSAVAVPTLVIAGEIDRIAAAAGHAWPHFQTLPDNIPKMYLEIKGGNHFIANSVTDNEGLAPNIDVHDLVGSMS [TEP027]”, which “purified protein yield per well” value is on record?
Answer: The value was less than 25 µg.

Question: Which “purified protein yield per well” value does the source give for “QNCGNISLNNITNPGPYGYLTMDQNDGLRDGPDYGNATVYYPTNTTTPFACVSIVPGFFSTQSSVAAWGPFLASHGIVSIIFDTNSLFDSPADRADGLLDALETMRQENTRTASPLFGLIDESRFGVMGWSMGGGGAQLAAVIDPSLKAVIALCPWLNSPNSNTLNHTVPVLILSGELDPTAPPDLHADVHFDLTPNTTDKLLFEVDGGDHSIANDPANAQGDIGKYGLAWLRNYLLDDPCHCPLVLLPSTETSNTMTNVVCPPTLACPIQLTLFNNLIADGTYKAIQTVTSASMVPLSGNVSLKAEQSIFLDCGFSVDSGAAFEAVIQICN [TEP048]” here?
Answer: Its value is less than 25 µg.

Question: For “APAESAQRAASPYERGPAPTEQSVSAKLGPFAFTQVPAPANASAGFNQGTVYYPNDTGQGTFGAIAITPGFLSPESSIGWLGPRLASNGFVVITLTTNSPVDFPGGRAAQMRAALDWVTKQAPDAIRSRIDPTRLGVMGWSMGGGGTLEVANTHPNIQAAVPLAPWHLTNNWSTVKVPTMIIGAQNDLIAGVGAHSEPFYESLKSAPERAYAEIKGGNHFSVTVDTPLVGKLATSWMKRFIDDDTRYDQFLCPKPTDSTLSEYRDSCPNG [DP035]”, which “purified protein yield per well” value is on record?
Answer: The value was less than 25 µg.

Question: For “RSGPYQVAYYTQLPPVPEFGAATLYFPANKGQDFSGVVIAPGYIEQQENISWWGNHLASHGFAVLTIDTNSLQDNPQLRAEALMAGVELLRGENTRMGGTLRGKFHEQQMAVMGHSMGGGGALLAANNSGGELKAAIPLTPWLPDGDFGAVAVPTLLISGETDRIAAVADHARLHYQSLPEELTKMYLEIKGGNHFIANSIVENEGLNPNIDVRDLVGGMA [TEP023]”, which “purified protein yield per well” value is on record?
Answer: Its value is less than 25 µg.

Question: With “ADSPYQRGPDPTPASVAATRGPFATTQATVPAGNGFNGGYVYYPTDTSQGTWGAVAIVPGYSALFANEEAWMGPWLASFGFVVIGIETNSRSDGADARATQLLAALDYLTRTSPIRDRVDANRLGVMGHSAGGAGTLLASLRRPTLKTAVGLAPGTPGNNLNMSTTQVPTMLLSGQNDGTVTPSYVQGIYNTLPAGVEHAWAELAGNDHLSFTRSNPTEMRLLIPWLKTFLDNDTRYTQFLCPLGNSTGVSRYNATCPLVPPDGPTTPPTSSPPTSAPPTTSAPTTPPPSGAPCTATYRTVNAWSGGFQGEVTVTAGTAAINGWTVTWGLNNGQSISQVWSGTLSTSGSTATIRNVSYNGSLAPGGTTSFGFLGSGTPAATSPTCASP [ESM025]” as the sequence, how does the “purified protein yield per well” value read?
Answer: The value was less than 25 µg.

Question: Which “purified protein yield per well” value does the source give for “QNPFERGPAPTTASLEASRGPFATSSFTVSRPSGYGAGTVYYPTNAGGTVGAIAIVPGYTARQSSINWWGPRLASHGFVVITIDTNSTLDQPSSRSRQQLAALDQVATLARTSSSPIYNKVDTTRMGVMGWSMGGGGSLISAENRPSLKAAAPQAPWNSSTNFSSVTVPTLIFACENDSIAATGSHASPMYNSMSRNPKQYLEINGGSHSCANSGNSNQALIGKKGVAWMKRYMDNDTRYTSFACANPNSTRVSDFRVARCS [ESM086]” here?
Answer: The value was less than 25 µg.

Question: With “ITPPPDDDGNNGGGDTCQQDCGFERGPNPTVASLESRSGPFSVRTSSVSSRVSGFGGGTIHYPTGQTGTMGAIVVIPGFVSAESSIAWWGTQLAAHGFVVMTIDTNSGTDQPPSRARQINAALDYLVSQNTASGSPVRGMIDPSRLGVAGWSMGGGGTLRVATEGRIKAAMPLAPWDTGSTQFRSVKAQTLIFACESDAIAPVNSHASPFYNALPNNINKAFVEISRGSHYCANGGNSNNSLLSRLGVSWMKLHLDQDQRYNQFICGPRHESDRSISEYRGNCSN [ESM115]” as the sequence, how does the “purified protein yield per well” value read?
Answer: The value was less than 25 µg.

Question: Which “purified protein yield per well” value does the source give for “ADPGTGGGNGGGNTCQEDCGFERGPDPSVSMLEARNGPFSVRTSRVSGLVSGFGGGTIHYPTGQSGTMGAIVVIPGFVSAESSIDWWGSQLASHGFVVMTIDTNTGFDQPPSRARQINAALDYLVDQNRASGSPVNGMIDTSRLGVIGWSMGGGGTLRVATEGRIKAAIPLAPWDTSSRQFRSVQAPTLIFACGSDLIAPVRSHASPFYNALPNGLDKAYFEISRGSHYCANGGNTNNSRLSRLGVSWMKLHLDQDQRYNQFICGPRHESDRSISEYRGNC [ESM181]” here?
Answer: The value was less than 25 µg.

Question: Which “purified protein yield per well” value does the source give for “AENPYERGPDPTESSIEASRGSFAVSQTSVSSLAVIGFGGGTIYYPTSTAQGTFGAVAISPGFTATQSSIAWIGPRLASQGFVVFTIDTNTIYDQPDSRGDQLLAALDYLTQRSDVRSRIDTSRLAVAGHSMGGGGSLEAAQDRPSLQAAVPLAPWNTQKSWSSLRVPTFIIGGESDTVAPVASHSIPFYTSIPASAEKAYMELDNASHFFPNTANTTMAKYTISWLKRFVDNDTRYEQFLCPAPDDRTISDYRDTCPHA [TEP129]” here?
Answer: Its value is less than 25 µg.

Question: For “QVGPTPTSSSLNVTAGPFAVSSSRVFSPRGFGGGTIYYPTTSGQYGVVAMSPGFTATESSIAWLGRRLATHGLVVITINTNSTYDQPASRATQLMAALNHVLNSASSTVRSRVDSSKLAVAGHSMGGGGALIAAQNNPTLKAALPLTPWNTSTRFDGVRVPTLIVGADGDSVARVASHARPFYASLPATTFKAYAELNGASHFAPNSTNTPIGRYGVAWMKRFVDADTRYSPFLCGAAHDAYATSAVFDRYNDNCPY [ESM085]”, which “purified protein yield per well” value is on record?
Answer: Its value is less than 25 µg.
